Results as given in paper doi:10.1101/2024.04.26.591398.
pIC50, pKd: −log10 of the molar value.

Target: T1, FITC-casein
T1 sequence (P02666 16-224, species assumed, looked up): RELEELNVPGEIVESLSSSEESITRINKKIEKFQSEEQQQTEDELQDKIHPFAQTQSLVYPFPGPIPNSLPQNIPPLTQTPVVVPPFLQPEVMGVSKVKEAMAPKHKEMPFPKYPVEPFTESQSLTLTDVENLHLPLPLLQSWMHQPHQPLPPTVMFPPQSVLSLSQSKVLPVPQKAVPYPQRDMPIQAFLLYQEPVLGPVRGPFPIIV
Assay: fluorescence polarisation

Chain of Ydj1 (P25491 whole entry): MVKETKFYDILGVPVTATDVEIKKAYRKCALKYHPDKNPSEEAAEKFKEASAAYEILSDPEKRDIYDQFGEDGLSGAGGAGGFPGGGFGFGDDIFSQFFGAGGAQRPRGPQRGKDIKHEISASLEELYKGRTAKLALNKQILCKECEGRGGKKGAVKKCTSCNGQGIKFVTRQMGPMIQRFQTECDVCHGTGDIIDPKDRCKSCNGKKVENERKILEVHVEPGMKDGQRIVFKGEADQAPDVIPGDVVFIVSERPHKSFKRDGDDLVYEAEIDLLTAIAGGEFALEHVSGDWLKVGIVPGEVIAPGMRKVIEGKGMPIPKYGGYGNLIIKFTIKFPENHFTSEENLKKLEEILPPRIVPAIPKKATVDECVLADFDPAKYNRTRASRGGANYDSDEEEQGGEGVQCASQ
Chain of Hsp104 (P31539 whole entry): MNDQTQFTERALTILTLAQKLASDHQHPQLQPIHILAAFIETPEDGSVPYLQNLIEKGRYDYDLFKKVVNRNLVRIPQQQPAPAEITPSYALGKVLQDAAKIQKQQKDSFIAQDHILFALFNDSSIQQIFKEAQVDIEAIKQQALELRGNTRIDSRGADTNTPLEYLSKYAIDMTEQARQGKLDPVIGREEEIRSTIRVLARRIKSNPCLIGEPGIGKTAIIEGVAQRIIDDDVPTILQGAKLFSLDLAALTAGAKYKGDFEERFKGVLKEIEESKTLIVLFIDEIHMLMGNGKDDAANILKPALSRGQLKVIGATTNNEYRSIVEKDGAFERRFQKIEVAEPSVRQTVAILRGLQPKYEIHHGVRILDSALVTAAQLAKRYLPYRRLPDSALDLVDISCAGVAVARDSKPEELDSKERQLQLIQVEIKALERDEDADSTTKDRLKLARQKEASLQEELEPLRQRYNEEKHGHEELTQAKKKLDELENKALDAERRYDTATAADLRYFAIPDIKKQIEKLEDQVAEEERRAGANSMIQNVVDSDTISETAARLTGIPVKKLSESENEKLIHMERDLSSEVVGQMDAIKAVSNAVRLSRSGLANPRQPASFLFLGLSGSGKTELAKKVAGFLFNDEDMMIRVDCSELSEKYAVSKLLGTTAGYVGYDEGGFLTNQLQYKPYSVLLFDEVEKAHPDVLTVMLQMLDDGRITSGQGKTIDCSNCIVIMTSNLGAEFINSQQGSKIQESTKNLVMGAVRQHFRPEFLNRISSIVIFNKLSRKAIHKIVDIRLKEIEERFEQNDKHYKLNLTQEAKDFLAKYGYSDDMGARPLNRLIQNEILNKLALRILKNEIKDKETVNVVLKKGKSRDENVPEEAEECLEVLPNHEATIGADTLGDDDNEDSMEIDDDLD

Substance	pKd	pIC50
Hsp104 (from UniProt P31539 1-908) (natural protein)	6.70	
Ydj1 (from UniProt P25491 1-409) (natural protein)		4.40 to 4.70
